Source: PMC12212125, “Constitutively active Arabidopsis cryptochrome two alleles identified using yeast selection and deep mutational scanning” (The Journal of Biological Chemistry, 2025)

B1: Arabidopsis thaliana cryptochrome 2 (CRY2, UniProt Q96524), residues 1-535 fused after the Gal4 DNA-binding domain (Gal4BD-CRY2(535)); mutagenized window 321-412, Q96524 (parent)
chain: MKMDKKTIVWFRRDLRIEDNPALAAAAHEGSVFPVFIWCPEEEGQFYPGRASRWWMKQSLAHLSQSLKALGSDLTLIKTHNTISAILDCIRVTGATKVVFNHLYDPVSLVRDHTVKEKLVERGISVQSYNGDLLYEPWEIYCEKGKPFTSFNSYWKKCLDMSIESVMLPPPWRLMPITAAAEAIWACSIEELGLENEAEKPSNALLTRAWSPGWSNADKLLNEFIEKQLIDYAKNSKKVVGNSTSLLSPYLHFGEISVRHVFQCARMKQIIWARDKNSEGEESADLFLRGIGLREYSRYICFNFPFTHEQSLLSHLRFFPWDADVDKFKAWRQGRTGYPLVDAGMRELWATGWMHNRIRVIVSSFAVKFLLLPWKWGMKYFWDTLLDADLECDILGWQYISGSIPDGHELDRLDNPALQGAKYDPEGEYIRQWLPELARLPTEWIHHPWDAPLTVLKASGVELGTNYAKPIVDIDTARELLAKAISRTREAQIMIGAAPDEIVADSFEALGANTIKEPGLCPSVSSNDQQVPSAV

Variants of: B1
Test: yeast two-hybrid growth selection (MaV203; Gal4BD-CRY2(1-535) library x Gal4AD-CIB1; URA3 reporter on SC -Trp/-Leu/-Ura) in the dark, deep sequencing before and after selection, Enrich2 scoring; three independent screens (one at 48 h, two …)
Conditions: with CIB1 (CRYPTOCHROME-INTERACTING BASIC-HELIX-LOOP-HELIX 1), dark (no blue light), screens 1, 3 and 4, Svar > 0 = enriched under dark selection for CRY2-CIB1 two-hybrid growth (URA3 reporter), < 0 = depleted, relative to wild type (whose scores are 0). 'The Enrich2 software calculates, parent: 0, not an affinity, scale: Enrich2 score, numbering: uniprot, sequence starts at 1

Going from M354K to M354L, the enrichment rises from -1.63 to 0.399.

Going from M354R to M354T, the enrichment rises from -1.57 to 0.533.

Compared with M354V, H355D is lower in enrichment: 0.0609 for the first, -1.37 for the second.

Going from H355L to H355P, the enrichment rises from -0.0587 to 0.249.

Going from H355Q to H355R, the enrichment rises from -0.322 to 0.547.

First: H355Y
Second: N356D
The enrichment of the first is lower: -0.714 for the first, 2.44 for the second.

Compared with N356H, N356I is lower in enrichment: 0.0591 for the first, -0.473 for the second.

First: N356K
Second: N356S
The enrichment of the first is lower: -0.299 for the first, 0.0584 for the second.

First: N356T
Second: N356Y
The enrichment of the first is lower: 0.0153 for the first, 0.824 for the second.

Compared with R357G, R357I is lower in enrichment: 2.16 for the first, -0.511 for the second.

First: R357K
Second: R357S
The enrichment of the first is lower: 0.845 for the first, 2.1 for the second.

Going from I358K to I358L, the enrichment rises from -1.34 to 0.903.

Compared with I358M, I358R is lower in enrichment: 0.739 for the first, -0.0561 for the second.

Compared with I358T, I358V is higher in enrichment: -0.414 for the first, 0.345 for the second.

First: R359G
Second: R359I
The enrichment of the first is higher: -0.386 for the first, -0.665 for the second.

Compared with R359S, V360A is higher in enrichment: -0.603 for the first, 0.0306 for the second.

First: V360E
Second: V360G
The enrichment of the first is higher: 0.367 for the first, -1.05 for the second.

First: V360L
Second: I361F
The enrichment of the first is higher: 0.412 for the first, -0.00476 for the second.

Going from I361L to I361M, the enrichment falls from 0.823 to -0.375.

Going from I361N to I361S, the enrichment rises from -1.11 to -0.712.

Going from I361T to I361V, the enrichment rises from -0.646 to -0.287.

Going from V362A to V362D, the enrichment falls from -0.304 to -1.36.

Going from V362G to V362I, the enrichment rises from -1.16 to 0.151.

Compared with A366D, A366P is lower in enrichment: -0.566 for the first, -1.03 for the second.

Compared with A366T, A366V is higher in enrichment: 1 for the first, 2.13 for the second.

Going from V367A to V367E, the enrichment rises from -0.78 to -0.759.

First: V367G
Second: V367L
The enrichment of the first is lower: -0.377 for the first, 1.55 for the second.

Going from V367M to K368D, the enrichment rises from 1.21 to 3.06.

Compared with K368E, K368M is lower in enrichment: 2.88 for the first, 2.28 for the second.

First: K368N
Second: K368Q
The enrichment of the first is lower: 2.25 for the first, 2.29 for the second.

First: K368R
Second: K368S
The enrichment of the first is lower: 0.246 for the first, 1.76 for the second.

Going from K368T to K368V, the enrichment falls from 2.52 to 1.84.

Going from F369C to F369I, the enrichment falls from 0.578 to -0.158.

Going from F369L to F369S, the enrichment falls from 0.468 to -0.00513.

Compared with F369T, F369V is higher in enrichment: -2.07 for the first, 1.03 for the second.

First: L370H
Second: L370I
The enrichment of the first is higher: -0.964 for the first, -0.966 for the second.

Going from L370P to L370R, the enrichment rises from -1.4 to 0.499.

First: L371F
Second: L371H
The enrichment of the first is higher: 3.11 for the first, 2.16 for the second.

Going from L371I to L371P, the enrichment falls from -0.7 to -1.4.

L371R and L371S are the same in enrichment: 1.98 for the first, 1.98 for the second.

Going from L371V to L372F, the enrichment falls from 1.25 to 0.987.

First: L372H
Second: L372I
The enrichment of the first is lower: -1.45 for the first, -0.44 for the second.

First: L372P
Second: L372R
The enrichment of the first is lower: -1.5 for the first, 0.499 for the second.

First: P373L
Second: P373Q
The enrichment of the first is higher: -0.618 for the first, -0.644 for the second.

Going from P373S to P373T, the enrichment rises from -0.52 to 0.0155.

Going from W374C to W374G, the enrichment falls from 1.8 to 0.75.

First: W374L
Second: W374R
The enrichment of the first is higher: 1.65 for the first, 1.5 for the second.

Going from K375E to K375I, the enrichment falls from 2.2 to 0.307.

First: K375Q
Second: K375R
The enrichment of the first is higher: 0.228 for the first, -0.0254 for the second.

Compared with K375S, K375T is lower in enrichment: 0.796 for the first, -0.845 for the second.

Going from K375V to W376C, the enrichment falls from 1.44 to -0.498.

Compared with W376G, W376L is higher in enrichment: -0.7 for the first, 0.0656 for the second.

First: W376R
Second: W376S
The enrichment of the first is higher: -1.3 for the first, -1.68 for the second.

Compared with G377E, G377R is lower in enrichment: -0.85 for the first, -1.08 for the second.

Compared with G377V, M378A is higher in enrichment: -0.508 for the first, 0.99 for the second.

Compared with M378I, M378K is higher in enrichment: -0.703 for the first, 2.66 for the second.

Compared with M378L, M378R is higher in enrichment: -0.703 for the first, 2.81 for the second.

Compared with M378T, M378V is lower in enrichment: 2.32 for the first, 0.308 for the second.

First: K379A
Second: K379E
The enrichment of the first is higher: 1.5 for the first, -0.743 for the second.

Compared with K379L, K379M is lower in enrichment: 0.965 for the first, -1.02 for the second.

Compared with K379N, K379Q is lower in enrichment: -0.188 for the first, -0.304 for the second.

Compared with K379R, K379T is higher in enrichment: 0.0968 for the first, 0.481 for the second.

Going from Y380C to Y380D, the enrichment falls from -0.0376 to -0.763.

Compared with Y380F, Y380H is lower in enrichment: 1.2 for the first, -0.297 for the second.

Compared with Y380N, Y380S is higher in enrichment: -1.37 for the first, -0.827 for the second.

Going from F381C to F381I, the enrichment falls from 0.0158 to -0.4.

First: F381L
Second: F381S
The enrichment of the first is higher: 1.1 for the first, -1.2 for the second.

Going from F381T to F381V, the enrichment falls from 1.8 to -0.0604.

First: F381Y
Second: W382C
The enrichment of the first is higher: 0.399 for the first, -0.025 for the second.

Compared with W382G, W382L is lower in enrichment: 0.784 for the first, -0.17 for the second.

Going from W382R to D383A, the enrichment rises from -1.18 to -0.952.

Going from D383E to D383G, the enrichment falls from -0.349 to -0.813.

Compared with D383N, D383V is higher in enrichment: -0.384 for the first, -0.206 for the second.

Compared with D383Y, T384A is higher in enrichment: -0.379 for the first, 0.177 for the second.

First: T384I
Second: T384K
The enrichment of the first is lower: -0.949 for the first, -0.721 for the second.

First: T384P
Second: T384S
The enrichment of the first is lower: -1.14 for the first, 0.274 for the second.

Compared with L385F, L385H is lower in enrichment: 2.61 for the first, 2.39 for the second.

Going from L385I to L385P, the enrichment falls from 2.28 to -1.22.

Going from L385R to L385V, the enrichment rises from -0.336 to 2.7.

Going from L386F to L386M, the enrichment rises from -0.324 to 0.0161.

First: L386S
Second: L386V
The enrichment of the first is lower: -0.716 for the first, 0.483 for the second.

Going from L386W to D387A, the enrichment falls from -0.68 to -0.921.

First: D387E
Second: D387G
The enrichment of the first is higher: -1.15 for the first, -1.18 for the second.

First: D387H
Second: D387N
The enrichment of the first is lower: -0.974 for the first, -0.788 for the second.
